This is an account of results in publication PMC4777826, “Crystal Structure of the CTP1L Endolysin Reveals How Its Activity Is Regulated by a Secondary Translation Product*^([image sbox.jpg])” (The Journal of Biological Chemistry, 2015).

In data set [1] the target is CD27L endolysin RBSKO mutant (E181S/G182S) (bacteriophage (targets Clostridium difficile)) (UniProt B6SBV8). As to the kind of experiment: native MS; nano-ESI of each purified sample by itself (wild-type gene products, CBDHis, RBSKO mutants), 150 mM ammonium acetate pH 7.4.
The target of data set [2] is CTP1L endolysin, full-length (wild type) (bacteriophage ΦCTP1). Described as above.
Data set [3] concerns the target CTP1L endolysin K190S/G191S, ribosomal binding site knock-out (RBSKO) (bacteriophage ΦCTP1). In words: native MS; CBDHis titrated to 10 μM full-length CTP1L RBSKO at molar ratios 1:1, 1:2, 1:3 and 1:6 (full-length:CBDHis), 150 mM ammonium acetate pH 7.4; ratios of species from simulated peaks, three measurements.
In data set [4] the target is CBDHis, CTP1L(195-274) with a C-terminal His tag (bacteriophage ΦCTP1). In words: native MS; nano-ESI of each purified sample by itself (wild-type gene products, CBDHis, RBSKO mutants), 150 mM ammonium acetate pH 7.4.
The target of data set [5] is CTP1L endolysin, full-length (wild type) (bacteriophage ΦCTP1). In words: native MS; nano-ESI of the sample made from the codon-optimised CTP1L gene with the silent C→G back mutation (less truncated CBD made), 150 mM ammonium acetate pH 7.4.
The target of data set [6] is truncated C-terminal cell wall binding domain of CTP1L (secondary translation product) (bacteriophage ΦCTP1). In words: native MS; nano-ESI of each purified sample by itself (wild-type gene products, CBDHis, RBSKO mutants), 150 mM ammonium acetate pH 7.4.
Data set [7] concerns the molecule itself. Described as above.

“CD27L endolysin RBSKO mutant (E181S/G182S) (from UniProt B6SBV8 1-270) (enzyme)” returned a stoichiometry N in data set [1] of 2.

On to “truncated C-terminal cell wall binding domain of CTP1L (secondary translation product)”, for which the ratio of species, free FLCTP1L monomer (wild-type sample) (ratio (total 1.0)) in data set [2] was found to be 0.03.

“CBDHis, CTP1L(195-274) with a C-terminal His tag (domain or fragment)”: in data set [3], the ratio of species, 1:1 heterodimer (full-length:CBDHis 1:1) (ratio (total 1.0)) was 0.26; the ratio of species, 1:1 heterodimer (full-length:CBDHis 1:2) (ratio (total 1.0)) is 0.29; the ratio of species, 1:1 heterodimer (full-length:CBDHis 1:3) (ratio (total 1.0)) is 0.27; the ratio of species, 1:1 heterodimer (full-length:CBDHis 1:6) (ratio (total 1.0)) was 0.31. In addition, in data set [3], the ratio of species, 1 FLCTP1L: 3 CBDHis heterotetramer (full-length:CBDHis 1:1) (ratio (total 1.0)) was 0.09; the ratio of species, 1 FLCTP1L: 3 CBDHis heterotetramer (full-length:CBDHis 1:2) (ratio (total 1.0)) is 0.19; the ratio of species, 1 FLCTP1L: 3 CBDHis heterotetramer (full-length:CBDHis 1:3) (ratio (total 1.0)) is 0.27; the ratio of species, 1 FLCTP1L: 3 CBDHis heterotetramer (full-length:CBDHis 1:6) (ratio (total 1.0)) is 0.38. In data set [3], the ratio of species, 2 FLCTP1L: 2 CBDHis heterotetramer (full-length:CBDHis 1:1) (ratio (total 1.0)) was 0.3; the ratio of species, 2 FLCTP1L: 2 CBDHis heterotetramer (full-length:CBDHis 1:2) (ratio (total 1.0)) is 0.32; the ratio of species, 2 FLCTP1L: 2 CBDHis heterotetramer (full-length:CBDHis 1:3) (ratio (total 1.0)) was 0.26; the ratio of species, 2 FLCTP1L: 2 CBDHis heterotetramer (full-length:CBDHis 1:6) (ratio (total 1.0)) was 0.17. In addition, in data set [3], the ratio of species, free FLCTP1L monomer (full-length:CBDHis 1:1) (ratio (total 1.0)) was 0.4; the ratio of species, free FLCTP1L monomer (full-length:CBDHis 1:2) (ratio (total 1.0)) is 0.2; the ratio of species, free FLCTP1L monomer (full-length:CBDHis 1:3) (ratio (total 1.0)) is 0.2; the ratio of species, free FLCTP1L monomer (full-length:CBDHis 1:6) (ratio (total 1.0)) is 0.14. The stoichiometry N in data set [4] was 2.

As to “truncated C-terminal cell wall binding domain of CTP1L (secondary translation product) (domain or fragment)”, in data set [5], the ratio of species, 1:1 heterodimer (C→G sample) (ratio (total 1.0)) was determined as 0.09; the ratio of species, 2 FLCTP1L: 2 CBD heterotetramer (C→G sample) (ratio (total 1.0)) is 0.62; the ratio of species, free FLCTP1L monomer (C→G sample) (ratio (total 1.0)) is 0.28. Moreover, in data set [6], the stoichiometry N is 4. In addition, in data set [2], the ratio of species, 1:1 heterodimer (wild-type sample) (ratio (total 1.0)) came to 0.12; the ratio of species, 1 FLCTP1L: 3 CBD heterotetramer (wild-type sample) (ratio (total 1.0)) was 0.14; the ratio of species, 2 FLCTP1L: 2 CBD heterotetramer (wild-type sample) (ratio (total 1.0)) worked out at 0.72.

B1: CD27L endolysin, full-length (wild type) (enzyme, UniProt B6SBV8 1-270, looked up)
chain: MKICITVGHSILKSGACTSADGVVNEYQYNKSLAPVLADTFRKEGHKVDVIICPEKQFKTKNEEKSYKIPRVNSGGYDLLIELHLNASNGQGKGSEVLYYSNKGLEYATRICDKLGTVFKNRGAKLDKRLYILNSSKPTAVLIESFFCDNKEDYDKAKKLGHEGIAKLIVEGVLNKNINNEGVKQMYKHTIVYDGEVDKISATVVGWGYNDGKILICDIKDYVPGQTQNLYVVGGGACEKISSITKEKFIMIKGNDRFDTLYKALDFINR
notes: CD27L endolysin, a bacteriophage endolysin that targets Clostridium difficile; The wild-type sample also holds the truncated CBD; also called FLCD27L; source: E. coli BL21(DE3), pET15b, purified (Ni-NTA)
Consider B1, for which, in data set [7], the “stoichiometry N” value was 2.
